How the values were obtained:
[1] = molecular target: T1, IZN36 (biotinylated Cys-Gly-Gly-Asp-IZN36, His tag removed); assay: SPR, immobilised IZN36; compared with MBP-C37
T1 construct: also called biotinylated IZN36

[2] = molecular target: HIV-1 HXB2 Env (gp41 N-trimer region) (HIV-1 HXB2, UniProt P04578 33-856); assay: cell-based or functional assay
[3] = molecular target: HIV-1 JRFL Env (gp41 N-trimer region) (HIV-1 JRFL); assay: cell-based or functional assay

B1: MBP1-C37 (other)
chain: SSSGGGSGGGSGGGSSSSGGHTTWMEWDREINNYTSLIHSLIEESQNQQEKNEQELLHHHHHH
notes: domain: C-peptide (C37)
In the case of B1, the “KD difference from MBP-C37” value [1] is reported as < 20%, the “IC50, viral infectivity HXB2” value [2] is reported as 88.9 nM and the “IC50, viral infectivity JRFL” value [3] is reported as 640 nM.

With SSSSSGGHTTWMEWDREINNYTSLIHSLIEESQNQQEKNEQELLHHHHHH (other) [MBP-C37] the “IC50, cell-cell fusion (HXB2 Env)” value [2] was 192 nM, the “IC50, viral infectivity HXB2” value [2] was 206 nM and the “IC50 ratio (cell-cell fusion), relative to C37” value [2] was 225. For the same binder, the “IC50 ratio HXB2 (viral infectivity), relative to C37” value [2] was 74.8, the “IC50, viral infectivity JRFL” value [3] was 1870 nM and the “IC50 ratio JRFL (viral infectivity), relative to C37” value [3] was 228.

B2: MBP2-C37 (other)
chain: SSSGGGSGGGSGGGSSGGGSGGGSGGGSSSSGGHTTWMEWDREINNYTSLIHSLIEESQNQQEKNEQELLHHHHHH
notes: domain: C-peptide (C37)
With B2 the “KD difference from MBP-C37” value [1] was < 20%, the “IC50, viral infectivity HXB2” value [2] was 79.2 nM and the “IC50, viral infectivity JRFL” value [3] was 516 nM.

From US20070122429A1 (published 2007)
